Laboratory results: patent US20140087995A1 (published 2014)
Numbered stars: 1 amine (or outer) side, 2 acyl side, 3 side chain; on linkers, the order of the positions; unused ones are H or OH. Bridge positions count the residues as written; N and C are the ends. Side chains are listed from the residue outwards. Ends that are not written are not given here. * marks the point of attachment. C20 diacid = O=C(O)CCCCCCCCCCCCCCCCCCC(=O)*; γGlu = O=C(O)[C@H](CCC(=O)[*:2])N[*:1]; C14 diacid = O=C(O)CCCCCCCCCCCCC(=O)*; AEEA = NCCOCCOCC(=O)O

T1: rat amylin receptor (rat calcitonin receptor + rat RAMP 3) (rat, UniProt P32214 25-516; Q9JJ73 23-147)
T1 construct: whole, on cells; Membranes prepared from transiently transfected BHK tk'ts 13 cells; also called rAmylin-R; rat amylin 3(a) receptor
T1 sequence (looked up) 1: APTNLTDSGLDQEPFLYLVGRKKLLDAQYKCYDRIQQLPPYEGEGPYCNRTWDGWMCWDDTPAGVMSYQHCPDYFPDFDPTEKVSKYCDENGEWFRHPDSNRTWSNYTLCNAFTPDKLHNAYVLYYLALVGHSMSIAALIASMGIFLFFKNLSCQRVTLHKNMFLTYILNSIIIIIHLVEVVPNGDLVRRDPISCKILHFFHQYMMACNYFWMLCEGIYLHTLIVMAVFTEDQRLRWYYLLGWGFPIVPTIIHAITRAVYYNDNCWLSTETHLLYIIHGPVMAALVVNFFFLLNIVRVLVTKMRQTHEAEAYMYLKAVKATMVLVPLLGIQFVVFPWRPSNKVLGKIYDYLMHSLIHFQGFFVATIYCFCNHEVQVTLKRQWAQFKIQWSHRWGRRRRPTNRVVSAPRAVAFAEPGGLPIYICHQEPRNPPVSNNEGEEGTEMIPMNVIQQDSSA
T1 sequence (looked up) 2: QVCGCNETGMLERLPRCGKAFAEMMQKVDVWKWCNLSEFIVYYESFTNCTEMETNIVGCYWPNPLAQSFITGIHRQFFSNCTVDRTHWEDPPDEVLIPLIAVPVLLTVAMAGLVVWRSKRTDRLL

T2: rat calcitonin receptor (rat, UniProt P32214 25-516)
T2 construct: whole, on cells; Membranes prepared from transiently transfected BHK tk'ts 13 cells; also called rCTR; rat calcitonin (a) receptor
T2 sequence (looked up): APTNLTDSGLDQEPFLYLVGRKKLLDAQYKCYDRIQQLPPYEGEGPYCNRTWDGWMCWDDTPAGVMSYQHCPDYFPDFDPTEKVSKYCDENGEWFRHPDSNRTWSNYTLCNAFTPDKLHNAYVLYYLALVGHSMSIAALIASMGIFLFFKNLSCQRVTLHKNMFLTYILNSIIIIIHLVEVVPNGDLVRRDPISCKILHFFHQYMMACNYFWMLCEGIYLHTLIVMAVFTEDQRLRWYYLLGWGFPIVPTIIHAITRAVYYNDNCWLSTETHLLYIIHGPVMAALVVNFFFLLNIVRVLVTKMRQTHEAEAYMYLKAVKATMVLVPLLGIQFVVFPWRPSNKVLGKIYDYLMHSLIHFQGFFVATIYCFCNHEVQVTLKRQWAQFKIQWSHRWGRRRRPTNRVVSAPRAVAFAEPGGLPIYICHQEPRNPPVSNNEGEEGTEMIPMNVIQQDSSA

T3: human calcitonin receptor (human, UniProt P30988 25-474)
T3 construct: whole, on cells; Membranes from stably transfected BHK cells; also called hCTR; hCT
T3 sequence (looked up): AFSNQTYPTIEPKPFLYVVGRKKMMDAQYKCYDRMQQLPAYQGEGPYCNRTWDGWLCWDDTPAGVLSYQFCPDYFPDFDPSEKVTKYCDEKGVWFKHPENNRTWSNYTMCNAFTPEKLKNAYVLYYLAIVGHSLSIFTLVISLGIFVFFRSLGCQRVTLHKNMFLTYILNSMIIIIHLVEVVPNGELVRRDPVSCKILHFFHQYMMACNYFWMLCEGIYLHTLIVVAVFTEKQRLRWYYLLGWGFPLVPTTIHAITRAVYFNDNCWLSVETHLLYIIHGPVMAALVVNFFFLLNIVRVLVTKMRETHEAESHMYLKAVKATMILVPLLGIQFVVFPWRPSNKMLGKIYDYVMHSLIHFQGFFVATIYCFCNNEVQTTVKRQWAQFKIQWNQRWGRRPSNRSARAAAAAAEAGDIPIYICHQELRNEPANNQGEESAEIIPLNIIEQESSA


Columns and labels:
[1] = molecular target: T1, rat amylin receptor (rat calcitonin …); experiment: SPA competition vs 125I-rat amylin, membranes (Assay VI)
rat calcitonin receptor [2] = molecular target: T2, rat calcitonin receptor; experiment: SPA competition vs 125I-calcitonin, membranes (Assay VIII)
rat calcitonin receptor [3] = molecular target: T2, rat calcitonin receptor; experiment: ratio of IC50 on rat calcitonin receptor to IC50 on rat amylin receptor
[4] = molecular target: T3, human calcitonin receptor; experiment: ratio of IC50 on human calcitonin receptor to IC50 on human amylin receptor
Description: The resulting pellet was resuspended, homogenized and centrifuged (20.000 rpm, 15 min) in a buffer containing 20 mM Na-HEPES and 0.1 mM EDTA (pH 7.4, buffer 2). The resulting pellet was resuspended in buffer 2 and protein concentration was measured (BCA protein Assay, Pierce). The homogenate was kept cold during the whole procedure. The membranes were kept at −80° C. until use. The assay was performed in a 384 well Optiplate (PerkinElmer) in a total volume of 40 ul. Membranes were mixed with SPA beads. Final concentration of membranes 35 ng/μL final and SPA beads was 0.05 mg/well. Test-compounds were dissolved in DMSO and further diluted in assay buffer (50 mM Hepes, pH 7.4, 1 mM CaCl2, 5 mM MgCl₂, 0.1% OA and 0.02% Tween20). […] The final mixture was incubated with shaking at 400 rpm for 120 min at 25° C. prior to centrifugation (1500 rpm, 10 min). Samples were analyzed on TopCounter™ (Packard). The IC₅₀ was calculated using (one site binding competition analysis) GraphPad Prism5 as a measure of receptor affinity.
Membranes were prepared in the following way; the cells were rinsed with PBS and incubated with Versene for approximately 5 min before harvesting. The cells were flushed with PBS and the cell-suspension was centrifuged for 5 min at 1000 rpm. Cells were homogenized (Ultrathurrax) in a buffer containing 20 mM Na-HEPES and 10 mM EDTA (pH 7.4) and centrifuged at 20.000 rpm for 15 min. The resulting pellet was resuspended, homogenized and centrifuged (20.000 rpm, 15 min) in a buffer containing 20 mM Na-HEPES and 0.1 mM EDTA (pH 7.4, buffer 2). The resulting pellet was resuspended in buffer 2 and protein concentration was measured (BCA protein Assay, Pierce). The homogenate was kept cold during the whole procedure. The membranes were kept at −80° C. until use. Assay was performed in a 384 well Optiplate (PerkinElmer) in a total volume of 40 ul. Membranes were mixed with SPA beads.

Row | Binder | IC50 [1] [nM] | IC50 (rat calcitonin receptor [2]) [nM] | Ratio rCT/rAmylin binding (rat calcitonin receptor [3]) | Ratio hCT/hAmylin binding [4]
1 | K([AEEA-AEEA-γGlu-C20 diacid])CNTATCATQRLANFLRHSSPNFGAIPSSTNVGHNTY-NH2 (disulfide 2-7; N-terminus assumed; SMILES CC[C@H](C)[C@H](NC(=O)[C@H](C)NC(=O)CNC(=O)[C@H](Cc1ccccc1)NC(=O)[C@H](CC(N)=O)NC(=O)[C@@H]1CCCN1C(=O)[C@H](CO)NC(=O)[C@H](CO)NC(=O)[C@H](Cc1c[nH]cn1)NC(=O)[C@H](CCCNC(=N)N)NC(=O)[C@H](CC(C)C)NC(=O)[C@H](Cc1ccccc1)NC(=O)[C@H](CC(N)=O)NC(=O)[C@H](C)NC(=O)[C@H](CC(C)C)NC(=O)[C@H](CCCNC(=N)N)NC(=O)[C@H](CCC(N)=O)NC(=O)[C@@H](NC(=O)[C@H](C)NC(=O)[C@@H]1CSSC[C@H](NC(=O)[C@@H](N)CCCCNC(=O)COCCOCCNC(=O)COCCOCCNC(=O)CC[C@H](NC(=O)CCCCCCCCCCCCCCCCCCC(=O)O)C(=O)O)C(=O)N[C@@H](CC(N)=O)C(=O)N[C@@H]([C@@H](C)O)C(=O)N[C@@H](C)C(=O)N[C@@H]([C@@H](C)O)C(=O)N1)[C@@H](C)O)C(=O)N1CCC[C@H]1C(=O)N[C@@H](CO)C(=O)N[C@@H](CO)C(=O)N[C@H](C(=O)N[C@@H](CC(N)=O)C(=O)N[C@H](C(=O)NCC(=O)N[C@@H](Cc1c[nH]cn1)C(=O)N[C@@H](CC(N)=O)C(=O)N[C@H](C(=O)N[C@@H](Cc1ccc(O)cc1)C(N)=O)[C@@H](C)O)C(C)C)[C@@H](C)O, also called compound 97) | 2.24 | 159 | 71.1 | 104
2 | K([AEEA-AEEA-γGlu-C20 diacid])CNTATCATQRLANFLRHSSPNFGAIPSSTNVGPNTY-NH2 (disulfide 2-7; N-terminus assumed; SMILES CC[C@H](C)[C@H](NC(=O)[C@H](C)NC(=O)CNC(=O)[C@H](Cc1ccccc1)NC(=O)[C@H](CC(N)=O)NC(=O)[C@@H]1CCCN1C(=O)[C@H](CO)NC(=O)[C@H](CO)NC(=O)[C@H](Cc1c[nH]cn1)NC(=O)[C@H](CCCNC(=N)N)NC(=O)[C@H](CC(C)C)NC(=O)[C@H](Cc1ccccc1)NC(=O)[C@H](CC(N)=O)NC(=O)[C@H](C)NC(=O)[C@H](CC(C)C)NC(=O)[C@H](CCCNC(=N)N)NC(=O)[C@H](CCC(N)=O)NC(=O)[C@@H](NC(=O)[C@H](C)NC(=O)[C@@H]1CSSC[C@H](NC(=O)[C@@H](N)CCCCNC(=O)COCCOCCNC(=O)COCCOCCNC(=O)CC[C@H](NC(=O)CCCCCCCCCCCCCCCCCCC(=O)O)C(=O)O)C(=O)N[C@@H](CC(N)=O)C(=O)N[C@@H]([C@@H](C)O)C(=O)N[C@@H](C)C(=O)N[C@@H]([C@@H](C)O)C(=O)N1)[C@@H](C)O)C(=O)N1CCC[C@H]1C(=O)N[C@@H](CO)C(=O)N[C@@H](CO)C(=O)N[C@H](C(=O)N[C@@H](CC(N)=O)C(=O)N[C@H](C(=O)NCC(=O)N1CCC[C@H]1C(=O)N[C@@H](CC(N)=O)C(=O)N[C@H](C(=O)N[C@@H](Cc1ccc(O)cc1)C(N)=O)[C@@H](C)O)C(C)C)[C@@H](C)O, also called compound 98) | 0.137 | 24.1 | 176 | 74.1
3 | K([AEEA-AEEA-γGlu-C20 diacid])CNTATCATQRLANFLRHSSPNFGAIPSSTPVGSNTY-NH2 (disulfide 2-7; N-terminus assumed; SMILES CC[C@H](C)[C@H](NC(=O)[C@H](C)NC(=O)CNC(=O)[C@H](Cc1ccccc1)NC(=O)[C@H](CC(N)=O)NC(=O)[C@@H]1CCCN1C(=O)[C@H](CO)NC(=O)[C@H](CO)NC(=O)[C@H](Cc1c[nH]cn1)NC(=O)[C@H](CCCNC(=N)N)NC(=O)[C@H](CC(C)C)NC(=O)[C@H](Cc1ccccc1)NC(=O)[C@H](CC(N)=O)NC(=O)[C@H](C)NC(=O)[C@H](CC(C)C)NC(=O)[C@H](CCCNC(=N)N)NC(=O)[C@H](CCC(N)=O)NC(=O)[C@@H](NC(=O)[C@H](C)NC(=O)[C@@H]1CSSC[C@H](NC(=O)[C@@H](N)CCCCNC(=O)COCCOCCNC(=O)COCCOCCNC(=O)CC[C@H](NC(=O)CCCCCCCCCCCCCCCCCCC(=O)O)C(=O)O)C(=O)N[C@@H](CC(N)=O)C(=O)N[C@@H]([C@@H](C)O)C(=O)N[C@@H](C)C(=O)N[C@@H]([C@@H](C)O)C(=O)N1)[C@@H](C)O)C(=O)N1CCC[C@H]1C(=O)N[C@@H](CO)C(=O)N[C@@H](CO)C(=O)N[C@H](C(=O)N1CCC[C@H]1C(=O)N[C@H](C(=O)NCC(=O)N[C@@H](CO)C(=O)N[C@@H](CC(N)=O)C(=O)N[C@H](C(=O)N[C@@H](Cc1ccc(O)cc1)C(N)=O)[C@@H](C)O)C(C)C)[C@@H](C)O, also called compound 96) | 0.529 | 62.2 | 118 | 79.6
4 | K([γGlu-C14 diacid])CNTATCATQRLANFLRHSSPNFGAIPSSTNVGHNTY-NH2 (disulfide 2-7; N-terminus assumed; SMILES CC[C@H](C)[C@H](NC(=O)[C@H](C)NC(=O)CNC(=O)[C@H](Cc1ccccc1)NC(=O)[C@H](CC(N)=O)NC(=O)[C@@H]1CCCN1C(=O)[C@H](CO)NC(=O)[C@H](CO)NC(=O)[C@H](Cc1c[nH]cn1)NC(=O)[C@H](CCCNC(=N)N)NC(=O)[C@H](CC(C)C)NC(=O)[C@H](Cc1ccccc1)NC(=O)[C@H](CC(N)=O)NC(=O)[C@H](C)NC(=O)[C@H](CC(C)C)NC(=O)[C@H](CCCNC(=N)N)NC(=O)[C@H](CCC(N)=O)NC(=O)[C@@H](NC(=O)[C@H](C)NC(=O)[C@@H]1CSSC[C@H](NC(=O)[C@@H](N)CCCCNC(=O)CC[C@H](NC(=O)CCCCCCCCCCCCC(=O)O)C(=O)O)C(=O)N[C@@H](CC(N)=O)C(=O)N[C@@H]([C@@H](C)O)C(=O)N[C@@H](C)C(=O)N[C@@H]([C@@H](C)O)C(=O)N1)[C@@H](C)O)C(=O)N1CCC[C@H]1C(=O)N[C@@H](CO)C(=O)N[C@@H](CO)C(=O)N[C@H](C(=O)N[C@@H](CC(N)=O)C(=O)N[C@H](C(=O)NCC(=O)N[C@@H](Cc1c[nH]cn1)C(=O)N[C@@H](CC(N)=O)C(=O)N[C@H](C(=O)N[C@@H](Cc1ccc(O)cc1)C(N)=O)[C@@H](C)O)C(C)C)[C@@H](C)O) [N^ε1-[(4S)-4-carboxy-4-(13-carboxytridecanoylamino)butanoyl]-[Arg17,Pro21,Pro27,His34]-h-amylin] | 2.52 | 707 | 280 | 23.5
